Reference: US20230058774A1

Columns and labels:
[1] = biological target: FasDNR (Fas dominant negative receptor, deletion of amino acids 230-314 of human Fas) (human) (UniProt P25445); experiment: cell-based or functional assay
[2] = biological target: human Fas, wild type (human) (UniProt P25445); experiment: cell-based or functional assay

apoptosis (active Caspase3/7 and Annexin V) of primary human CD8+ T cells exposed to 100 ng/ml FasL-LZ [1]: < 20%
apoptosis (active Caspase3/7 and Annexin V) of primary human CD8+ T cells exposed to 100 ng/ml FasL-LZ [2]: 70%
Substance: soluble FasL oligomerized through a leucine zipper motif (FasL-LZ) (from UniProt P48023 103-281) (ligand)
